This series in a line: label from the status in PepcDB records.
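Further: failed if final PepcDB status was selected cloned or expressed and not failed if soluble or beyond.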

As to “MVVTPLIVLLVSVLGYANLNSTELGKLKLNRLVPSRLAITLFISGTVILFGAVFATFLLLLLWGLITLVVSGSLSSAWVAMQTLTGSPGGVEPDKSSVLLLFTIGLVISFLSVTKFQSKADANWKQNNSKFLIHKLVDDELELFLLRALEMDDFIPHNGDESPDKRMLVRVVLSNRKVYIGNLIRCDITRGVCSNIVLVPMHSGYQDESTLELQLTEHYEKHYSAELSSDATELQIKDFLNQYSLTIPVHHLVTASLFDLTAYQKFLTEKLNSM”, the protein production entry is reported as “failed”.

As to “MVVVTGREPDSRRQDGAMSSSDAEDDFLEPATPTATQAGHALPLLPQEFPEVVPLNIGGAHFTTRLSTLRCYEDTMLAAMFSGRHYIPTDSEGRYFIDRDGTHFGDVLNFLRSGDLPPRERVRAVYKEAQYYAIGPLLEQLENMQPLKGEKVRQAFLGLMPYYKDHLERIVEIARLRAVQRKARFAKLKVCVFKEEMPITPYECPLLNSLRFERSESDGQLFEHHCEVDVSFGPWEAVADVYDLLHCLVTDLSAQGLTVDHQCIGVCDKHLVNHYYCKRPIYEFKITW”, the protein production result is reported as “not failed”.

In the case of “MVWDRATPFVIDLNVGAEDIDGLGHANNAVYVSWLERCAWRHSQFLGLDLTEYQRLDRAMAVVRHEIDYLASAYESDELQLATWITDWDRRLKMTRCFQLKRPADNLTLLRAQTTFVCIELSSGRPKRMPAEFIEGYGAAIPLEHHHHHH”, the protein production result is recorded as “failed”.

For the sequence “MVWGTFLKNKKPYSIKRQLTLSVGLLVSALLLISLYFSFQSAKHEVEEVYDARLGQSAKLMLLTLSISTETDTLANHRELFDQWMKNIDSLAKSDEDKATKFGHPYEQNLVFQFYRDNKLIWSSTPNLRSLSSSFYNNGYADITKDGVQWRTFQLSLPQTEHENEYVVVAEKQKIRKEIIHEIALSTSIEQLLLLPTLLLLLFWLIDRYFRPINDLRTAITQRNVHRLDRIHVTDNTTELAPLVEALNSLLSELEQAWQREKRFTRAAAHELKTPLTILRLNVENALESNDPEQLRGDLHNILQGIERTDRLIHQLLTLAKVDSLSERVFDNVELTPLLQTVVADLAPLALRQDQDISLSPAEVALSGDKMLLEVLFRNLVDNAIRYSGAHSEIQVSVQENRNAIKILISDTGPEIPQETRERIFEQFYRGHSEKGDGAGLGMSICKDIATLHSAIIELIPRENGKNTFVVAFPKH”, the protein production entry is listed as “failed”.

As for “MWAHCSAIARTMVYPSFFCSGDWLKVAAENLCPGDEAYILLAKDADDIRGVLPLVRKRNALGGTDLHYLGSDFYPDPLGLICSPADRADCAAALRNHLLNAPDWDRLILDFLLEDEPADWTLPGKPVSVAPFKVLPRDFSELLGEFKKKKRYNLRAMVKKLLDAGGELAASSGPESNIAYLDALFFLHEKRASERSLDSSFTGPRVQSLHRALVAASDNVRFFGLRLNGQMIAVIYGFEFCNRFFYYQVAHDPDHGHLSPGTVLLYLVIEACCVNGLTEFNFLQGDETYKGIWTNDSRILYRCVLNRSTWRSRVFSAVEESRGYVKRAMGLMSRGN”, the protein production entry was “failed”.

For the sequence “MWCGRNAPPRRIRRHTASKSASTAAKGGVRRACPGIVSITRPFDRTRYGSQIPPMPAISIIARTRRKDDHGRVPIRLRISHRGEKRFIALPVKVLAKKWNGDKRRVTGTHPDAGEINTFLSDLERAAFSVISRLERAGTLITAQRIKDEIQEEREEVKSAPEDFLAFAREKVKGYKRRGQIGTFRSYRTTCRKFTAFIEETYGRDEVPFGALEAELFREFRTYCYEERGNSTNTVGRELGIMRTLVRHAMKEGKLSAYPFEHITIDSEPSQKELLTPEEVERIADLEIDEESPAAEARRWFLFAYYAGGMRFSDVATLQWQHIREGRSGRPRVCYKMKKTADTVGVPLIPEAKEILCRYEEGDGEDWVFPISEGIDPGNEEALHRRKCQRNSAANRHLKELAGQAGIEKRVTFHLSRNAAAWKLYQNVGDIYKVSKFLGHSNVEQTQDYIDGFVDESRDEDFIAAMT”, the protein production entry was “failed”.

Consider “MWDLNIKESTMTRNGKAKRPLPLAASVAMYAIAIILAAATAIGNVYANKYSDLISVYFNQPTSKVVSASNETTEHFTSDYASDDEREQALADMGTTILREGVTLLKNENGTLPLEATSKISVFGQDSVDSVYGGGGAGSIDTSKAQSLMDAFEQAGFDVNPTLTEFYTTGAGKDYRKTSTDAYGKGTFAVNEVPASAYTDDVKKSFASYNDAAIVVIGRSGSESQDLPTDKLASGYTYLQLDDDERAMLKMASDNFDKVVVLLNTQNPMELADLEDDSIDAVMWIGSLGQTGAGGVAEALNGTVNPSGHLPDTYAYDLKSAPSSANFGSYAIVNGTDRFTSSYMAYAEGIYVGYRYYETRYEDVVLGNEARSNYDYTKQVAYPFGYGLSYTDFTWSDYSMKKADGGFDISVKVTNTGKTAGKDVVQLYMQSPYTDYDKANGIEKASVELVGYAKTDTLKAGASETVTVHVDQESMKTYDSTGEGTYIMDAGDYYLAVGTDAHNALNNILAAKGKTTADGMTENGNAALAAKHTVHSQDNTTYAKSAATDEKISNQFDDVDLTTYDNSFTYLSRSDWTGSWPATYADGKWTASQKFLDALNIDTAQSEPEQKPTTDTDNPSYGKLNASMLMDADYADESWSALIGQMSVKELDQLVRIGGYATKSVSSTQLPATTDKDGPAGISSTLVGGESGMGYPSEIVIAATWNSDLAESFGKAIGEDSLALKVAVWYGPACNIHRNPYGGRAFEYFSEDSYLSGAMCAKVVAGAGSKGVVSTVKHFALNDQETNRMGGAIFANEQTIRQLYLRPFEMSVRDGGATAMMASMNRIGSRWTGGHKGLMTNTLRGEWGFNGFVVTDQASYSVFAYEDLREGLEAGTDLWLNTDAGLWKLPDDDMTDGVIANMQRAAHNISYAISRSNAMNGLSANSKIVKVTPLWRWGVYALDGVVTVGAVALIAIATLQILRRRKRDATVAAETGEPAANDGE”, for which the protein production result is listed as “failed”.

With “MWDVIVVGGGPSGLSAALFLARAGLKVLVLDGGRSKVKGVSRVPNYPGLLDEPSGEELLRRLEAHARRYGAEVRPGVVKGVRDMGGVFEVETEEGVEKAERLLLCTHKDPTLPSLLGLTRRGAYIDTDEGGRTSYPRVYAAGVARGKVPGHAIISAGDGAYVAVHLVSDLRGEPYKDHAL”, the protein production entry was “not failed”.

In the case of “MWEIYDAMINGIPEDFLVDELVCGTTHSVIRSGNGVGLGPNRPFETRMPMLTQNLLGLPLRVAAGCVKSWNYVEASIGLAAINAYYNNPQVAREHGVIFSDAKRVEDRMNDPFIMSQNEVKGKKVGVVGHFPHLESLLEPICDLSILEWSPEEGDYPLPASEFILPECDYVYITCASVVDKTLPRLLELSRNARRITLVGPGTPLAPVLFEHGLQELSGFMVKDNARAFRIVAGAEKVKIYSAGQKVTIKK”, the protein production entry is reported as “not failed”.

With “MWIAVSAVNLALAVILGAFGAHGLKAYASPAKLAWWQTATDYFFYHALGLLVLGVISKTYTVLPIKSSFILIQIGILFFCGSLYLMALGLPRGFGAITPIGGAFMILGWIVLAWNAVKYAK”, the protein production entry is “failed”.

Consider “MWIGSVFMRKSFVISLLSAGILLAGCQAVNTTSGGAVGVERQQYMFSMLSTDEVNQMYAQSYQQTLGEASSKGVLDKSSADAKRVQAIANRLIAQAPKFRPDAAQWDWQVNVIKSDELNANCGPGGKIIVYTGLIDQLKLTDAEIAAVVGHEIAHALREHSREAMSKAYGVEMARQGAGAIFGLGQSSMAMADTVVNYAMTLPNSRANENEADLIGLELSARAGYDPNAAITLWNKMSKASEGAPPEFMSTHPASASRIASLQAAIPKVMPLYQAAAKP”, for which the protein production entry is given as “failed”.

For the sequence “MWKHVKQVDPEIYEVLVNELKRQEYGLELIASENFASLAVIETMGSMLTNKYAEGYPKKRYYGGCEWVDRAEERAIERAKRLFGAKFANVQPHSGSQANMAVYLALAQPGDTIMGMSLSHGGHLTHGAPVNFSGKIFKVVPYGVNLETETIDYDEVRRLALEHKPKIIVAGGSAYARIIDFKRFREIADEVGAYLMVDMAHFAGLVAAGIHPNPLEYAHVVTSTTHKTLRGPRGGLILTNDPEIAKAVDKTIFPGIQGGPLMHVIAAKAVCFKEAMTEEFKEYQKQVVKNAKKMAEEFQKRGYRIVSGGTDTHLFLVDLTPKDITGKAAEKALESCGITVNKNTIPNEKRSPFVASGIRIGTPAVTTRGMKEEEMEEIAEMIDLVLSNVIDENGTVKPEVREEVSKKVRELCERFPLYRDKIEGVEI”, the protein production result was “not failed”.

Consider “MWKRMTAKAEGLYIADTKSFVTKQMDKLDFDYGGIPGDLHFGLTKKAGAREPMFSRGTEIFNRRQISIVSIEECNEIALKMGVPRILPEWLGANVAVSGMPDLTSLKEGSRIIFPSGAALLCEGENDPCIQPGEVIQSYYPDQPKLASAFVRHALGIRGIVCIVERPGAVYTGDEIEVHSYQRKVKRKAERV”, for which the protein production result was “not failed”.

As for “MWLSEFEIVLRDRVIPNGAVRIEDGRIAEIRDRPVAHADIDGGGRLLLPGFIDMHGDMVEREVEPRIGVHVPMRIGIAELDKKLASCGITTAYAALSFIGASVTSGVLRSEDHTTEIIDTIAGMKDHLLVDHRTHARFEVTFTPAIPTLQKLMDAGRLDLISLMDHTPGQGQYRDVELYIARIAKERGMSVAAASEVVGKRMAGREGQGNVLNALQDLSARARAAGIVLASHDDDTLEKVELVHGLGAALSEFPVTLEAAQEARRLGMHTAMGAPNALRGESYSGNLSARQAYQAGLLDMLASDYHPASILPAVLGLAELRGDGLAAAAALTSANPANALGLTDRGAVEPGLLADFVVADRYPVPRVRATFRAGRMIYGDGTLALAGKAERLGPVAAERLPAA”, the protein production result was “failed”.

On to “MWPFRKEQERGGWLIGWNPHGLLVIVVAVVHDPRVENATAALNKLKESEGDIRATAHRKQHKDVPSATSLLILGWMHSKQATLDKSEYADAWVRSQHSRAELWLELNEGPLLHQLYCCGSPVQPCHLHVLRSDPTVSYAVTSTAFSAVARHDRGDLVKLVEGKMQPICVEGANSTLEGVLLPSHMVHSAGPRTKMRRMVGSDPLTQDEEEKQEGAKQRTEDDRVSVGSSGSGEGSTESQSVRGSETPRFGGELHPRLDFPTSTDYGELSSLLRASAYGKILRELCENKVSNATDGTAATARLCAYWKNCGNRFTGFLTKILVVFHLVLKWPGNVSYTAALLEFRLRMVIHWLLLLRGDTRVCCLHPVLPHIQHNDPALRRFCVVDFLVRFAVDTICGMLLSLLLSHGSGLLVTKAVSWCRWLLYDLHMEYMDWFEGWPAGLKMNGDLSMTLSCIAKAVLEASWASVEDLSNVGLFYKLLIFVAPLGASCAFAFVADLCLIASLHLYLVFHSVSLPYRFARFMLRNLFLQFQGKKHNPLRHRTDTYDFPVEQTLVATVIFTIIVFLLPTLAVYHVYFALICIAVWLLQGALLVAAHLTLYLPLYPLFYWALYRRQWPGGVALTGPKVLSTPQHSRALNPFARGSLTVEFGVVSKPLELRVLLADFLLVAHVVGRLHPFDMIVAVFKVRRWERTNPGKCLVPPLPADIMPLTGMTLPKTAVA”, for which the protein production result is “failed”.

For “MWPVVALTLFVVTFGFVLGGLVVGGKVQARPVSFLLFSGLFLFSSFFGMLVSLFTTGWFPFRLLDVVIVALCFVFIVSCFMRFHPTFGFFQFDGRANMILFAVISFFLGLQLGMLGWRTFFILFLALVFTAGLFAGGVFQVRAVMKFYSRQPSFHFLPLIWLLFATVLKLL”, the protein production entry is “failed”.

As to “MWSCPTLNAPRAAQKWLPVRATPHLCVLHMSRLMLSSTLIDELSYVRKDQLETSALFELIAHRYERHSIAITANEPFSGWSDAMTVAAIDRLVHHSTIIEMNGESYRKRAAVARGASTQNANDEPEDPPNRSSLEHHHHHH”, the protein production result is reported as “failed”.

For the origin of these results see a protein production outcome set (Wang et al. 2014).
